The record followed here is paper PMC2849673 (Biochemistry, 2010).

This series deals with the molecule itself. In words: crystal structure.

B1: E-2-(acetamidomethylene)succinate (E-2AMS) hydrolase (enzyme, Mesorhizobium loti MAFF303099, UniProt Q988D4 1-278, looked up)
chain: MDMAADIASDHFISRRVDIGRITLNVREKGSGPLMLFFHGITSNSAVFEPLMIRLSDRFTTIAVDQRGHGLSDKPETGYEANDYADDIAGLIRTLARGHAILVGHSLGARNSVTAAAKYPDLVRSVVAIDFTPYIETEALDALEARVNAGSQLFEDIKAVEAYLAGRYPNIPADAIRIRAESGYQPVDGGLRPLASSAAMAQTARGLRSDLVPAYRDVTKPVLIVRGESSKLVSAAALAKTSRLRPDLPVVVVPGADHYVNEVSPEITLKAITNFIDA
For B1, the “stoichiometry N” value stood at 2.
